Laboratory results as given in patent US20110318846, “Aptamer and detection method for C-reactive protein” (National Cheng-Kung University, published 2011).

T1: C-reactive protein (CRP) (Homo sapiens, UniProt P02741 P02741:19-224)
T1 sequence: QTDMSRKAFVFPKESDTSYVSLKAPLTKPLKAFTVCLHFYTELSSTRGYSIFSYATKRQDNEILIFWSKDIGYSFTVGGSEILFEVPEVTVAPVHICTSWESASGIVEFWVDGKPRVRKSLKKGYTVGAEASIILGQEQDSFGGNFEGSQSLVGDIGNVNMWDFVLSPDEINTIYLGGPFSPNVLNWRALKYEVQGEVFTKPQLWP

B1: aptamer A (ssDNA)
DNA: GGCAGGAAGACAAACACGATGGGGGGGTATGATTTGATGTGGTTGTTGCATGATCGTGGTCTGTGGTGCTGT
modifications: 5'-biotin (SPR and bead assay)
B2: aptamer B (ssDNA)
DNA: GGCAGGAAGACAAACACACAAGCGGGTGGGTGTGTACTATTGCAGTATCTATTCTGTGGTCTGTGGTGCTGT

Experiments:
C-reactive protein (CRP) [1] = target: T1, C-reactive protein (CRP); assay: SPR; Biacore X, SA chip with biotinylated aptamer, 10 mM Tris, 50 mM NaCl, 2 mM CaCl2, 25 C, 1:1 Langmuir; conditions: immobilised on Dynabeads M-450 Epoxy for SELEX, in solution for SPR; chain copies: 5 inferred (pentamer)
Protocol: Then, 90 μL of the aptamer solution A being cooled to 4° C. is aliquoted, and the aptamer solution A is injected to pass the surface of the SA sensor chip, so that the aptamers A in the aptamer solution A is coated on the surface of the SA sensor chip. Later, 90 μL of the reverse primer solution is injected and passes through the surface of the SA sensor chip for blocking. Subsequently, 5×SSCT buffer is used to wash the surface of the SA sensor chip until the SPR response reaches a balance.
Five cycles as described in the following are then performed. Here, each cycle includes: (1) injecting 90 μL of the testing solution to pass through the surface of the SA sensor chip; (2) washing the surface of the SA sensor chip by using 90 μL of a washing buffer C (10 mM Tris buffer containing 50 mM NaCl and 2 mM CaCl₂); (3) recording the SPR response of the SA sensor chip for 5 min; and (4) injecting 90 μL of 100 mM NaOH to pass the surface of the SA sensor chip, so that the surface of the SA sensor chip is regenerated. The testing solutions used in the five cycles are washing buffers C respectively having a CRP concentration of 0.01, 0.05, 0.1, and 0.5 mg/L.
FIG. 4 is a SPR response measured under different CRP concentrations detected by the SA sensor chip coated with aptamers A along with time in the Biacore X system. […]

C-reactive protein (CRP) [2] = target: T1, C-reactive protein (CRP); assay: competition; PCR product 3; CRP-coated tube, competition with free CRP, PCR readout, 25 C; conditions: immobilised on Dynabeads M-450 Epoxy for SELEX, in solution for SPR; chain copies: 5 inferred (pentamer)

| Binder | Kd (C-reactive protein (CRP) [1]) [nM] | binding result (C-reactive protein (CRP) [2]) |
| --- | --- | --- |
| B1 | 3.51 | – |
| B2 | – | binds |
